The source of these data is patent US20230233707A1 (University of Washington, published 2023).

B1: d2.4 (designed binder)
chain: MSDEEERNELIKRIREAAQRAREAAERTGDPRVRELARELARIAQIAFYLVLHDPSSSEVNEALKAVVKAIELAVRALEAAEKTGDPRVRELAREVVKAAVDVAEAAQAGLNDKLREVAEKALRLAKEALKEGDSTAAELAAEIARLAAKLAGDEDVLKKVKLVLEAIKLVKIVVENAKRKGDDSKEAAEAAVAAFLIVLAAAKLAGIASEEVLELAARLIKEVVENAQREGYDIAVAAIAAAVAFAVVAVAAAAADITSSEVLELAIRLIKEVVENAQREGYVILLAALAAAAAFVVVAAAAKRAGITSSETLKRAIEEIRKRVEEAQREGNDISEAARQAAEEFRKKAEELKGSLEHHHHHH
notes: Homodimer for D2 dihedral cages; C-terminal GS linker and 6xHis tag; also called d2.4 AbC-forming design
B2: i52.6 (designed binder)
chain: MSDEEERNELIKRIREAAQRAREAAERTGDPRVRELARELARLAQRAFYLVLHDPSSSDVNEALKLIVEAIEAAVRALEAAERTGDPKVREEARELVRRAVEAAEEVQRNPSSSEVNEKLKAIVVEIEVKVASLEAKEVTDPDKALKIAKKVIELALEAVKENPSTEALRAVLEAVRLASEVAKRVTDPDKALKIAKLVIELALEAVKEDPSTDALRAVLEAVRLASEVAKRVTDPDKALKIAKLVLELAAEAVKEDPSTDALRAAKEAERLATEVAKRVTDPKKAREIEMLVLKLQMEAILAETEEVKKEIEESKKRPQSESAKNLILIMQLLINQIRLLALQIRMLALQLQEGSLEHHHHHH
notes: Homopentamer for I52 icosahedral cages; C-terminal GS linker and 6xHis tag; also called i52.6 AbC-forming design
B3: d2.7 (designed binder)
chain: MSDEEERNELIKRIREAAQRAREAAERTGDPRVRELARELAKLAQIAFYLVLHDPSAKEVNLALELIVKAIELAVRALEEAEKTGDPHARELAREIVRLAVELARAVAEAAEEAKKQGNSELAEQVARAAQVALEVIKAAITAAKQGDRKAFRAALELVLEVIKAIEEAVKQGNPKKVAEVALKAELIRIVVQNAANKGDDADEAVEAARAAFEIVLAAAQLAGIDSEEVLELAARLIKEVVENAQREGYDIAVAAIAAAVAFAVVAVAAAAADITSSEVLELAIRLIKEVVENAVREGYVILLAALAAAAAFVVVAAAAKRAGITSSETLKRAIEEIRKRVEEAQREGNDISEAARQAAEEFRKKAEELKGSLEHHHHHH
notes: Homodimer for D2 dihedral cages; C-terminal GS linker and 6xHis tag; also called d2.7 AbC-forming design
B4: d2.3 (designed binder)
chain: MSDEEERNELIKRIREAAQRAREAAERTGDPRVRELARELARIAQIAFYLVLHDPSSSEVNEALKAVVKAIELAVRALEEAEKTGDPEVRELAREVVRLAVEVATATAAGENDTLRKVAERALRLAKEAAKRGDAKAAKQAAKIAKLAAANAGDEDVLKKVELVRLAIELVEIVVENAKRKGDDDKEAAEAALAAFRIVLAAAQLAGIASLEVLELALRLIKEVVENAQREGYDIAVAAIAAAVAFAVVAVAAAAADITSSEVLELAIRLIKEVVENAQREGYVILLAALAAAAAFVVVAAAAKRAGITSSETLKRAIEEIRKRVEEAQREGNDISEAARQAAEEFRKKAEELKGSLEHHHHHH
notes: also called d2.3 AbC-forming design
B5: i52.3 (designed binder)
chain: MSDEEERNELIKRIREAAQRAREAAERTGDPRVRELARELARLAQRAFYLVLHDPSSSDVNEALKLIVEAIEAAVRALEAAERAGDPELREDAREAVRLAVEAAEEVQRNPSSSTANLLLKAIVALAEALAAAANGDKEKFKKAAESALEIAKRVVEVASKEGDPEAVLEAAKVALRVAELAAKNGDKEVFKKAAESALEVAKRLVEVASKEGDPELVLEAAKVALRVAELAAKNGDKEVFQKAAASAVEVALRLTEVASKEGDSELETEAAKVITRVRELASKQGDAAVAILAETAEVKLEIEESKKRPQSESAKNLILIMQLLINQIRLLVLQIRMLDEQRQEGSLEHHHHHH
notes: Homopentamer for I52 icosahedral cages; C-terminal GS linker and 6xHis tag; also called i52.3 AbC-forming design

In the assay the target is T1, Fc from human IgG1 (human, UniProt P01857-1 104-330 = IgG part).
T1 construct: domain: Fc; also called human IgG1 Fc; IgG1 Fc protein
Description: SEC, design mixed with human IgG1 Fc, overlaid on the single components [panel B]. The source says: Synthetic genes encoding designed protein sequences appended with a C-terminal 6× histidine tag were expressed in E. coli. Designs were purified from clarified lysates using immobilized metal affinity chromatography (IMAC), and size exclusion chromatography (SEC) was used as a final purification step. […] Designs were then combined with human IgG1 Fc, and the assemblies were re-purified via SEC. Eight of these AbC-forming designs assembled with Fc into a species that eluted as a monodisperse peak at a volume consistent with the target nanoparticle molecular weight (FIG. 2a-b; 3 D2 dihedral, 2 T32 tetrahedral, 1 O42 octahedral, and 2 I52 icosahedral AbCs). For the i52.6 design, adding 100 mM L-arginine to the assembly buffer prevented aggregation after combining with Fc; all other designs readily self-assembled in Tris-buffered saline.
Designs that produced monodisperse SEC peaks around their expected retention volume were combined with Fc from human IgG1. Fc was produced recombinantly either using standard methods for expression in HEK293T cells or in E. coli (43). Cage components were incubated at 4° C. for at minimum 30 minutes. […] Fc-binding and cage formation were confirmed via SEC; earlier shifts in retention time (compared to either component run alone) show the formation of a larger structure. NS-EM was used as previously described to confirm the structures of designs that passed these steps.
(In general: Size exclusion chromatography separates by hydrodynamic size, large species first.)
For B1, the binding result is “binds”.

On to B2, for which the binding result is recorded as “binds”.

Take B3: the binding result is reported as “binds”.

Turning to B4, the binding result was “binds”.

Consider B5, for which the binding result is recorded as “binds”.
